Assay results from the DeepSol protein solubility set.

Assay: soluble on expression in E. coli; label from the status in PepcDB or PDB records

Row | Sequence | soluble on expression in E. coli
1 | MDMLKENVIQNNEARTESSVEPSHPDMMETVPEEQQKPISHIDDLLSETANLMAVKEQLLKEIAENEHIHSMQMRALQNLPQEAILPLQYHADPRRRHRMQKPESYKTVICQAWLESKTCAFAENCRFAHGEEELRPSLIEARQNNKYRTKLCDKYTTTGLCPYGKRCLFIHPDNGPNAYIRADKLFEVSQRHALADLRDQMEHHIMNGGRSTAGPQQFDMFARPCTPDEPAANMPLGPTPVSIRGPRYELPSKKPLETEEAGNRPPSSWPLDPSTFFALDSLNMATRPISPFESMLIGAAGNMQYSMLGKQSTPGGVSGYSSSGSTPSQDSDSSPLTAASAAADAACQANSESAQSILLKSINNPMIGNETTLPIPGLDQLAMDIAKHLELW | not soluble
2 | MAHHHHHHMRRTVVQRVAPWVPPPRHDIKVTMPPPPGGEVGGRFGVSQGYSDRLARTPYWKRMALSTYKLRMMENATRYPMSEHRPGEYDIRYLPTPYPCTIRNRPLLEVGEPRQIPSIRIPVIFLVNLFDEAKGCWFGRRYETVYVERQFMREELMPQRYAIYATPEAYKLLGLPVVNHHTHEEIPKTPREYEKLLERQRYDEERWKYTIEYLFRKYEDGPPELLDRPEDGWDGSEEIALSSVAGAGRDGVVSQRKGPVKQRKARKIKLF | not soluble
3 | DKVSLKLPKSNGELFEFKWLDHKIAYIALNGFHDKKILQDFNDVYDEIKQSRGLIIDLRFNGGGNSSIAAEILSHFTNKGLEGSIWKNRKHIAAFKAWGNYSGKYKIYAQDNAWESGAMESLKAKENSHIVPTYVLIGRNTASAAEDFLIYADKLKHFTTLGENTYGSTGQPIFFDLPGGGSFRICTKRDTYPDGREFVGYGITPQVIIDRMPEHLRSEKDIVLYSAIKKLKEKI | not soluble
4 | MRYVVGHKNPDTDSIASAIVLAYFLDCYPARLGDINPETEFVLRKFGVMEPELIESAKGKEIILVDHSEKSQSFDDLEEGKLIAIIDHHKVGLTTTEPILYYAKPVGSTATVIAELYFKDAIDLIGGKKKELKPDLAGLLLSAIISDTVLFKSPTTTDLDKEMAKKLAEIAGISNIEEFGMEILKAKSVVGKLKPEEIINMDFKNFDFNGKKVGIGQVEVIDVSEVESKKEDIYKLLEEKLKNEGYDLIVFLITDIMKEGSEALVVGNKEMFEKAFNVKVEGNSVFLEGVMSRKKQVVPPLERAYNG | soluble
5 | MSFTDEKIRLNIGGTIFETSKSTLTKFDGFFKTLLETDIPIQKDDSNCIFIDRSPRHFEKILNYLRDGADVDLLPESEKEVREILKEAQFYLLEGLMELCKRSSCKIRTFESYHHLLKLIAEAGKPVLVMFYLVKDNRIVHVPNNFEFLDFLEKHQGKLDIYFKESPYETTHQNPSQFLPPGREEAAPSWTYCFYNTPKLPFRFTISFVEKLEEDIEFVLGNLNK | not soluble
6 | MAHHHHHHSLDASTLFKKVKVKRVLGSLEQQIDDITTDSRTAREGSIFVASVGYTVDSHKFCQNVADQGCKLVVVNKEQSLPANVTQVVVPDTLRVASILAHTLYDYPSHQLVTFGVTGTNGKTSIATMIHLIQRKLQKNSAYLGTNGFQINETKTKGANTTPETVSLTKKIKEAVDAGAESMTLEVSSHGLVLGRLRGVEFDVAIFSNLTQDHLDFHGTMEAYGHAKSLLFSQLGEDLSKEKYVVLNNDDSFSEYLRTVTPYEVFSYGIDEEAQFMAKNIQESLQGVSFDFVTPFGTYPVKSPYVGKFNISNIMAAMIAVWSKGTSLETIIKAVENLEPVEGRLEVLDPSLPIDLIIDYAHTADGMNKLIDAVQPFVKQKLIFLVGMAGERDLTKTPEMGRVACRADYVIFTPDNPANDDPKMLKAELAKGATHQNYIEFDDRAEGIKHAIDIAEPGDTVVLASKGREPYQIMPGHIKVPHRDDLIGLEAAYKKFGGGPVDQEG | soluble
7 | MADFKVLSSQDIMWALHELKGHYAITRKDFESHQHMENLTSQDEVPRDTRPFLMPLKNGRSYHQKPVEKGKREKK | not soluble
8 | MYLTLQEWNARQRRPRSLETVRRWVRESRIFPPPVKDGREYLFHESAVKVDLNRPVTGSLLKRIRNGKKAKS | soluble
9 | MGSDKIHHHHHHMTQTTPQPDPSRLRDELVRLHGKASPEWDSLVRLDPRFVDAYLKFAGVPQRRNHLDDKTRAFIALAADACATQLYAPGVARHIERALSFGATREELIEVLELVSTIGIHTSNVGVPVLLEVLEEEGLRKGAPPLDERRQKLKAEFETNRGYWHPTWEGLLELDPDLFEAYVEFSSVPWRTGVLSPKIKEFMYCAFDASATHLYVPGLKLHIRNALRYGATAEELMELLEIVSVTGIHGAELGAPLLEAALKRSGAAAGEPHA | not soluble
10 | MTRTSKWTVHEAKSNPKYFTHNGNFGESPNHVKRGGYGKGNWGKPGDEINDLIDSGEIKTVFNKTRRGSNSQNNERRLSDLQQYHI | soluble
11 | MAHHHHHHSLDSLGAINKIQDFLQKQEYKTLEYNLTTTEVVMENVTAFWEEGFGELFEKAKQNNNNRKTSNGDDSLFFSNFSLLGTPVLKDINFKIERGQLLAVAGSTGAGKTSLLMMIMGELEPSEGKIKHSGRISFCSQFSWIMPGTIKENIIFGVSYDEYRYRSVIKACQLEEDISKFAEKDNIVLGEGGITLSGGQRARISLARAVYKDADLYLLDSPFGYLDVLTEKEIFESCVCKLMANKTRILVTSKMEHLKKADKILILHEGSSYFYGTFSELQNLQPDFSSKLMGCDSFDQFSAERRNSILTETLHRLSLEGDAPVSWTETKKQSFKQTGEFGEKRKNSILNPINSIRKEG | soluble
12 | MSLNYKNYTVMLVDDEQPILNSLKRLIKRLGCNIITFTSPLDALEALKGTSVQLVISDMRMPEMGGEVFLEQVAKSYPDIERVVISGYADAQATIDAVNRGKISRFLLKPWEDEDVFKVVEKGLQLAFLREENLRLQEETEAKNKQEGHHHHHH | soluble
13 | SNAMKQIIDIENWERKENFNFFRHFQNPQLSITSEVECGGARQRAKAAGQSFFLHYLYAVLRAANEIPEFRYRIDPDGRVVLYDTIDMLSPIKIKENGKFFTTRFPYHNDFDTFYQEARLIIDAIPEDGDPYAAENEEVADGDYGLILLSATPDLYFTSITGTQEKRSGNNYPLLNAGKAIIREGRLVMPIAMTIHHGFIDGHHLSLFYKKVEDFLK | soluble
14 | NRRIVARLIGLGDSIDAIIKNDLSHPIVVDGNDEIGRLSEKLIEYGEKVQEIQRTNALSLINNTTASLITSDLNGVVESANLSARKLLKLGEVNESYPIWEYFPESCREQLKKVFDGSHLWIELGKIHVTLSLGDEKPKYVRFDIRPFAHGAEYKLIMTITDVTHQEMTTRTLESRVLEKTQDLLLKNQQLENEIEERIRTEDNLKKTQDELIQAAKMAVVGQTMTSLAHELNQPLNAMSTYLYSARMFLEQESPEKVGESITHIEGLATRMSKIINSLRQFARKPEGEREVKFVSVHEVAEQASTIVNTRAKRQQIIIENQLPDDVKVQGDMLALEQVFINVLVNSCDALMESTRDEQKRIQMALVERTSQTTLIAISDNGIGFGEEIVQRIFQPFVSTKEVGLGLGMNICKSLIEKHKGSIYLASSLEKGAMVVLELPNEQ | not soluble
15 | MSLTTVMSGVTTLMRAPIGSIRESEGGRDFIRNVFEESVQIMRVLGAPVKENITEEHMKTMDKISYNMKSSMQRDMEKGSSVEGTHLQGYLLDVAKQFSIEAPLLGAVYQNLKVYEEMTLNRSAIELDEGHHHHHH | soluble
16 | MSLEWCKNRLEITGRSVFVDIMQQWVTGEEVPLYRHAIQQSIRLFLAGCAGILKPVKCMEYPPFPRLVSHGTGSAVASNLAFQHWLDLLLKDAVLDGDTIRQIDRIYLQSGIASVKWETIPEGARQIITQLMARQYPDWFGVASWSSHINGADCWTKLGVMQEHACNCDMLMIIPTRLAIELNGNSQLLTGVSTTHDLYSHLYGMAWPSGQNIIWQRDRINSLRLDFDSPSYPPSAELMGELSAVFDCEIRHWYQEPVNGIRGYDCYDRGDHVDSGEYGAGPFLPPLKVEEVTVNGQEEAAEGHHHHHH | soluble
17 | MKREILLERIDKLKQLMPWYVLEYYQSKLAVPYSFTTLYEYLKEYDRFFSWVLESGISNADKISDIPLSVLENMSKKDMESFILYLRERPLLNANTTKQGVSQTTINRTLSALSSLYKYLTEEVENDQGEPYFYRNVMKKVSTKKKKETLAARAENIKQKLFLGDETEGFLTYIDQEHPQQLSNRALSSFNKNKERDLAIIALLLASGVRLSEAVNLDLRDLNLKMMVIDVTRKGCKRDSVNVAAFAKPYLENYLAIRNQRYKTEKTDTALFLTLYRGVPNRIDASSVEKMVAKYSEDFKVRVTPHKLRHTLATRLYDATKSQVLVSHQLGHASTQVTDLYTHIVSDEQKNALDSL | not soluble
18 | MVNFTVDEIRALMDRKRNIRNMSVIAHVDHGKSTLTDSLVSKAGIIAGSKAGETRFTDTRKDEQERCITIKSTAISLFFELEKKDLEFVKGENQFETVEVDGKKEKYNGFLINLIDSPGHVDFSSEVTAALRVTDGALVVVDCVSGVCVQTETVLRQAIAERIKPVLFMNKMDRALLELQLGAEELFQTFQRIVENINVIIATYGDDDGPMGPIMVDPSIGNVGFGSGLHGWAFTLKQFAEMYAGKFGVQVDKLMKNLWGDRFFDLKTKKWSSTQTDESKRGFCQFVLDPIFMVFDAVMNIKKDKTAALVEKLGIKLANDEKDLEGKPLMKVFMRKWLPAGDTMLQMIAFHLPSPVTAQKYRMEMLYEGPHDDEAAVAIKTCDPNGPLMMYISKMVPTSDKGRFYAFGRVFSGKVATGMKARIQGPNYVPGKKEDLYEKTIQRTILMMGRFIEPIEDIPSGNIAGLVGVDQYLVKGGTITTYKDAHNMRVMKFSVSPVVRVAVEAKNPADLPKLVEGLKRLAKSDPMVQCIFEESGEHIIAGAGELHLEICLKDLEEDHACIPLKKSDPVVSYRETVQSESNQICLSKSPNKHNRLHCTAQPMPDGLADDIEGGTVNARDEFKARAKILAEKYEYDVTEARKIWCFGPDGTGPNLLMDVTKGVQYLNEIKDSVVAGFQWATREGVLSDENMRGVRFNVHDVTLHADAIHRGGGQIIPTARRVFYASVLTAEPRLLEPVYLVEIQCPEAAVGGIYGVLNRRRGHVFEESQVTGTPMFVVKAYLPVNESFGFTADLRSNTGGQAFPQCVFDHWQVLPGDPLEAGTKPNQIVLDTRKRKGLKEGVPALDNYLDKM | not soluble
19 | MPDSPAEVKTQPRSTPPSMPPPPPTSSQGATRPPSFTPHTLMNGSSHSPTAIHGAPSTPNGFSNGPATSSTASLSTQHLPPACGARQLSKLKRFLTTLQQFGSDISPEIGERVRTLVLGLVNSTLTIEEFHAKLQEATNFPLRPFVIPFLKANLPLLQRELLHCARLAKQTPAQYLAQHEQLLLDASATSPVDSSELLLEVNENGKRRTPDRTKENGSDRDPLHPDHLSKRSCTLSPAQRCSPSNGLPHPTPPPPPHYRLEDMAMAHHFRDSYRHPDPRELRERHRPLAIPGLDKKK | soluble
20 | KCLVLDLDGTLWGGVVGEDGIEGIKLGPTGSGKPFYEFQKYIKSLFKKGVILAVNSKNNYDDAMEVIRKHPYMVLREEDFADFEINWQDKASNMRAIAKKLNIGIDSMVFMDDD | not soluble
21 | QGHMPSDSKKPTIIYPCLWDYRVIMTTKDTSTLKELLETYQRPFKLEFKNTSKNAKFYSFNVSMEVSNESERNEIFQKISQLDKVVQTLGS | soluble
22 | GSSGSSGMSSMTQNLREVMKVMFKVPGFDRVLEKVTLVSAAPEKLICEMKVEEQHTNKLGTLHGGLTATLVDSISTMALMCTERGAPGVSVDMNITYMSPAKIGEEIVITAHILKQGKTLAFASVDLTNKTTGKLIAQGRHTKHLGNSGPSSG | soluble
23 | MGSDKIHHHHHHMNQPDAYLWEQHIPGGCHWSGILRRGTTLRMTDVSGGANASVLFFNQEEKLERYNMADTLKSQHTFRLTKGHACHSDMGRIFCCITADSAGWHDTVCGLSDADLIRRKYGTARYQEHRNQMFRNGLDGMLIELGKWGLGMRDVVSNINFFSKVTANSAGELTFHSGNSKAGDHVDLSFEMDTLVVLSAAPHPLDPSTTYQPGAVNLAAFATPSSAIAECAHISENQRARQNTECLYACHGGAA | not soluble
